Our source for the protein production values is a protein production outcome set (Wang et al. 2014).
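Further: failed if final PepcDB status was selected cloned or expressed and not failed if soluble or beyond.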

The data set is described as follows: label from the status in PepcDB records.
As to “MNLFVLLFVFVFGIIGSYSSKFSEKNLFWLFVIVLAIIIGGRSISVPDTDQYLEFYQLTLSSSILDIPLYSYEIGFQLLTKILKLITNGSSFFYFGIIVLINSYFLFKSFSCFTDQSYPSKKSSGTLINQIKLQEFLLLYFSYWGLYYTGIVLRAGIAMSILIYLSTLLCSPYISLKKWSAIFLLAIISCSFHITALLGIIALIIFYISKKMTMRSYLLLFLLICIILFGKVSFWIVDMLDRNMPMIFSLIEDTDFAKLQAYSNIDASIKISFRFLFCLLIGLFFIICKRMPLYYYKYLNVYIVGLFLGALFSAIEAFSRIMDFFVIYSFILISMRLSTINSFKIRFSIMFSIVLIQLLFVYRIIIGL”, the protein production entry is recorded as “failed”.

On to “MNLGILLGFLIYLVLLAYIGWWANRYTKTEEQYFIGGRKVHVLAATLSDKASDFSGWLMLGYPGTAFKTGLGAFWAAIGCLFGTLADYLLIGPRLRIYAGKFRSITLPDYLEARLKDNTKLIRILSAAIILIFMTAYVAAQFAAGGKTFSEAFGVSVTTGILITVIILTAYVITGGFFAVVWTDVVQAMFMLLTLIIMPILALAEIGGLDKATQIIGSVNPAKLHPFGGATGLAAIVFAIGYASWIVGYLGQPHIVTRYMSVEDPRKLRRPGIFISGIWTTIVLWGAFFAGFLGFALAINGSIKIDDPEKIVPAMAVHFLPSWIAGFVIAGIISAVMSTADSQLLVASSAIARDIYHKVLGQELGKKQMVNISRVVVAIVSLIAMWFAISGPKVIYQMVATAWGGLAVGFGPILTLSLWWKRVTKEAGIIGMGYGLISEVLLEAKIYGWAFNPNAPGFFGTLGKWFNGVPVFFINFFITLLVIIIVSLLTKPPEDVVKLHKELFKKVPIEKSEKIKVARAKSQAENVFDFAIASGLL”, for which the protein production result is “failed”.

In the case of “MNLILYLVTVFVALFAMVNPIGALPVLVSVTEGYSKDDFERVVRYAAMSEALMLFSFMLIGIYIFEVLGININDFKVAGGVLLFKVAFDMLQGRTSTTKLTPAETEESIERTSIGIAPIGTPLLAGPGSITAAIIYFNSYSVNIPEKIAVVISVSLVVVISYFILHYSSVLFKYLGKTGSLIISRIMGLLLAAIAVDFMVTGLAFIVKSITGV”, the protein production entry was “failed”.

For “MNLKDLLAHRENLMDSAKRARSAITDDMDPADAAQAVENVKSIISEIESTDEAIAARRGVSDVTQKLKGLTITERGTENDSAASRSLGEHFVKAAGDRLKNQAAGAHIEYSVPEYQVKEDAHSSPKDLVEGWGTFYQRGIINQRRERLVAADLMGAATVTASTVKYIVEKANRIASGAPATVAEGTKKPYVKYADFDVVTESLSKVAALAKFTDEMIEDYDFVASWINNNLVYDLSVVEEKQLINGDGRGSNIKGLLNREGIQTHKSAKQADWFNDLFKAKNKVSQATNLEADGIMINPVNYEALRLTKDGNGQYIAGGPFQGQYGNGNILIDPPLWGIKTVVSNAVPAGTAIVGAFRQGATVLRKGGVRVDSANTNADDFENNLVTLRAEERLGLMVPLPAAFVKVTLEETTEEL”, the protein production result is reported as “not failed”.

As to “MNLKQIAKDTAKTLQSYLTYQALMTVLAQLGETNPPLALWLHTFSVGKVQDGEAYVKELFREQPDLALRIMTVREHIAEEVAEFLPEMVRSGIQQANMEQRRQHLERMTHLSLSNPSPESEQQTISDTDWDH”, the protein production result is given as “failed”.

Consider “MNLKTLKIFIEGYGCTLNTADTNIINNSIKKFKNFIIVNNLDDADIVVINTCVVRLETEHKMISRINYIKSLNKYIVIAGCMPKALKKKAEKINPDILIMPKEAHLIGDIIYNYFKNNIGNENNADNKIEDSMKCGELPHNQASSSGNYNDIDNKLTQLKPNNLIMPLPISEGCTGKCTYCIVKIARGRLASYNPDKIINKAKEFVDNGVKQMLITSQDTACYGFDKNTTLPTLLNEICQIKGDFNIRIGMMHAKNVPMIIDELIDRYKDDKITKFFHLPIQSGDDDVLRAMKREYTVDEYMDIAMEFKRKIKDLNFNTDVIVGFPTETEDNFNNTIELLKKLKPDAIHGAKYTQRKGTEADRLKQVDTKIRKERMKILDKLRKEFSLENHEKYVGKIMPCLIVGKNEGITHNCKTVKFENCEDVKIGEFRKIKIKEALTFGLYGEIIN”, for which the protein production result was “failed”.

In the case of “MNLLIENIRGISYALVSPTLSLMLIVIAIIFYFKNRKIAFMQKLMLGRSIQSPLEMTLLQILIGILGGLIASLLLSILGVTFENSSLIDVILTVSVFSVLYKNRFLKFPYIAALLGVIGVLVSKNTEYFGRGFSFSINLTSIIVLIGVFSIVEGILAMIDGDKGYLPIFTQKDGKLVGGFGFKRFWALPLCLLVVLGANSGNSIINEVKDLPQWLPFFNGDKARALMSVAALGTLAAYGATSYEGTTFTQSKRSKTITSGLINIAYGIVVIILAYLLKESLVFTIALIILIPLLYELRIRMELKLESLREPLYFSNDDEICILDVLPNSIAYKKGLRSGDKIVKINEEIPKNEKEVFMAIKRNFYGLDLEIRKNNGNIEKHTITGEDRGKQFGIVLVPKGISFDKEIDEFLEKLKKASKDEEVKNK”, the protein production result is “failed”.

For the sequence “MNLLTVSTDLISIFLFTTLFLFFARKVAKKVGLVDKPNFRKRHQGLIPLVGGISVYAGICFTFGIVDYYIPHASLYLACAGVLVFIGALDDRFDISVKIRATIQAAVGIVMMVFGKLYLSSLGYIFGSWEMVLGPFGYFLTLFAVWAAINAFNMVDGIDGLLGGLSCVSFAAIGMILWFDGQTSLAIWCFAMIAAILPYIMLNLGILGRRYKVFMGDAGSTLIGFTVIWILLETTQGKTHPISPVTALWIIAIPLMDMVAIMYRRLRKGMSPFSPDRQHIHHLIMRAGFTSRQAFVLITLAAALLASIGVLAEYSHFVPEWVMLVLFLLAFFLYGYCIKRAWKVARFIKRVKRRLRRNRGGSPNLTK”, the protein production result is “failed”.

As to “MNLLYVVLIGQILLFLIGAIYAMRQTKRTKDNMPLPLAIRLILSFSLTGSAIWIWLQDPSVEYSTWVALGMTLSTVGDLFMAGLIPIGHRLIGGMVTFALAHCFYVKAFLQTGISWNGFWIGLLVYGLFLIVGWFFFIRNDKQDKLFTIGALIYGLWVGGMACFAFALYYENTGIWWIPAFGGLLFVISDFIIGVTDIGGRKLKYEPLWIWFTYVAAQMCIVYVGL”, the protein production entry was “failed”.

On to “MNLMRFLRRPISLRQRLILTIGAILLVFELISVFWLWHESTEQIQLFEQALRDNRNNDRHIMREIREAVASLIVPGVFMVSLTLFICYQAVRRITRPLAELQKELEARTADNLTPIAIHSATLEIEAVVSALNDLVSRLTSTLDNERLFTADVAHELRTPLAGVRLHLELLAKTHHIDVAPLVARLDQMMESVSQLLQLARAGQSFSSGNYQHVKLLEDVILPSYDELSTMLDQRQQTLLLPESAADITVQGDATLLRMLLRNLVENAHRYSPQGSNIMIKLQEDGGAVMAVEDEGPGIDESKCGELSKAFVRMDSRYGGIGLGLSIVSRITQLHHGQFFLQNRQETSGTRAWVRLKKDQNVANQI”, for which the protein production result is on record as “failed”.

With “MNLNNIRSSMTESTKSKDESMRSHLVKPGSVYDGIEPGELGETTESVQDRVRQLESRNSFLEEQCSQIESEKRYLENQKIKYEREIRKLQSELDRMKTSPLIIGTVIDVIKNDRIIVRSSNGPQFLVNVSQYIDEKKLLPGAKVALNQHTLAIAEVIPSTEEPFVAAMEVIESVEVDYDQIGGLDEQIQELQEAVELPLTSPERFARIGIEPPKGVLLYGLPGTGKTLLAKAVAHRTNATFIRVVGSELVQKYIGDGSKLVREIFEMARKKAPSIIFIDELDSIAARRLNETTGADREVQRTLMQLLAEMDGFDKRKNIRIIAATNRPDVLDPAILRPGRFDRLVHVPMPGIEARGKILKIHCEKMTLAEDIDFKKLAKATEGMSGADLKAIATEAGMFAVRRDKELVEMEEFLEAVEKVSMAADTQKMMPSNLPETMFV”, the protein production result is on record as “failed”.

In the case of “MNLSKFPVYVQAAILALVLALVGYLVAQALQFSLKAEVIFAVGLAIGGFVVPLFLNRAPAGVAELASSQETCTLYVGNLPYRANEIAVRELFAEQGQVISVRLMKDKATGKRRGFGFVEMPAADAAKAIAALNDKEYQQRTLKVREANDKRDKDEREGSEVDA”, the protein production entry was “failed”.

As for “MNLTFDYTKEPSRDVFCIDVKSFYASVECVERGLDPLKTMLVVMSNSENSGGLVLAASPMAKKVLGISNVTRKNEVPDHPNLIIVPPRMKLYMKKNQEINNLYKRFVSDEDHSVFSVDESFLDVTASLTYFKCDTAYKLAKIIQRVIYNHMGLYVTIGIGENPLLAKLALDNEAKNAPGFVAEWRYEDVPEKVWPISPLTEFCGIGNRMAARLKKLGIRSIYDLAHIEPYMLKERFGIMGLQLYAHSWGIDRSFLGQKAGRPTEKSFGNSQVLPKDYANKEQIKLVLKELSDQVASRLRMASCQTTCVSLFVGYSKGQTDKYGQTGWRRQMKVEPSNNTKVLTEHVLRLFEENYAPGVDVRNLGVSYGRLVWNKNLQLDLFSVPEEQIHETDMYFLIDKIRQKFGFKALIHASSLMEGATAISRASLVGGHAGGTVGLGTTK”, the protein production entry is “failed”.

As to “MNLTFLGLCIACMGVSVGEGLLMNGLFKSVARQPDMLSEFRSLMFLGVAFIEGTFFVTLVFSFIIK”, the protein production entry was “failed”.

For “MNLTYLFVLIWLAFLISSGVMLFSRGFLLARVSKTETSTCRRLSTNPNAEYVLTDEVVNEIFKDVNASSNLCLPQKSKVIVLVVDALKYEFGLYRANATDPLPYENKLVVLQELLQQNPDHARLMRFRADPPTTTLQRLKGLTTGSLPTFIDIGSNFASPEINEDNIIDQIVKNDLPVVFLGDSTWTDLYPHRFKRSYSYPSFDIFDLDSVDNEILKHLPKELESKDWQVLVAHFLGVDHCGHKHGPMHEEMARKLGEMNEVIRSVVAAMDNDTTLLVMGDHGMTASGDHGGDTDDETNALLFAYSKQHRFYGNDSGSDSEMLQQIDLVPTLATILGVPIPYSNLGLVNFNIVPDLRVPHLNKFQTLLLHSWQNAQQIYRYFFQYALENKRTFNVEQMDHLETEFILLTHRVQTVYNEVAFKSFVRDLNTNLRDILGTCREIWVRFDPTQMSQGLLFTFLPLFFIFLVVNNSRPADFPHIFKAKEVFYVYLINLAAGVFGYRYFKTFSFKTEEQGVIFFTAISSAVILAFHTLRHWTSIATNWSAVKRFGHMPTRLLLFGSMAVFFSNSFVIQEAKILSYLLAAAILLLSHELLRLSARLDFRTKFKASQFLRSTALRLILASVLAICLIRFAYTLFRCREEQGNCSDFVNTGGAGFSLKKPGTGKTYILAVVVLVVYTTLTRLYLRSCGNLTGNLPNVLLARYGPTVASICAGGHILLANSSIKHIQRTHIDAMALVIYGLLLVQIIVLSWAPLMTFVLPPRSSHTVTINGNESIVPEIFRKMKRMYEGDDDERRSHIPVVYGLATVYSSIVIAFGVFLALVMIVLLEPRASIGLVVCVAVGAILLSVHSILRYRTATSFESCVQPTFTALVGWFLLAHFCFFATSHQTTLSQIEWRAAFVGRTTGIGQSNLVSGALVILNTFCGPIFFFCMYSLLSTETFSLFALFPNLIRSCRSGGKVDASTSMSDLANEAVGFDMTRGELSLYEYEDVFLGTGFKLATQFFMLQGLKIFCAMLACTIHCRHLMVWKIFAPRFIYEALATFVSLPALIVGYLLVLRIHRGVDTLIKRINKAKVH”, the protein production entry is reported as “failed”.

As to “MNMGMVTLAAIRSVPMATTYIRGGTVVSPTGCQDLDVLIDGERIAALVDPELAPFDDPDRTFDHVLEAKGKYVIPGGVDAHTHMEMPFGGTVASDTFETGTRAAAFGGTTTIIDFAIQRQGERVQDTLAAWHAKARGNCAVDYGFHQILGGVDTDALKAMDELVAEGVTSFKLFMAYPGVYYSDDGQILRAMQQCAGNGALTMMHAENGIAIDQLVAQHIERGETSPYYHGVSRPWELEEEATHRAIMLAKITGAPLYVVHVSAKQAMEQIAGARGSGANVFAETCPQYLYLSLEEQLAAPGFEGAKWVCSTPLRSHEEGHQEELWRYIRTGDVATVSTDHCPFCFKGQKEMGLGDFSKIPNGMSGVEHRIDLMYQGVVNGKLSLQRWVDVCATTPARMFGLYPRKGIVSPGADADVVIYDPDGRTSIGFEKNHHSNVDHSTWEGFEVEGCVQTVLSRGTIVVDRGRYLGRKGHGVFLKRGLSQYLI”, the protein production result is reported as “failed”.

With “MNMKLQVTVLKGDVIENGYEVVDAVEGNGNNDDSGDDGGEDEEGSADDAEGKETKKGPVSDPDLNGEAGDNDDEPEGDDGNDDEDDDNHENDDEDEEEDEDENDDGGEEDDDEDAEVEEEEEEEDEDDEEALQPPKKRKK”, the protein production result is reported as “failed”.
